{"source": "IntAct's records for PubMed 22262837", "parents": {"B1": {"name": "Kin of IRRE-like protein 1 (Homo sapiens), Q96J84 (parent)", "chain": "MLSLLVWILTLSDTFSQGTQTRFSQEPADQTVVAGQRAVLPCVLLNYSGIVQWTKDGLALGMGQGLKAWPRYRVVGSADAGQYNLEITDAELSDDASYECQATEAALRSRRAKLTVLIPPEDTRIDGGPVILLQAGTPHNLTCRAFNAKPAATIIWFRDGTQQEGAVASTELLKDGKRETTVSQLLINPTDLDIGRVFTCRSMNEAIPSGKETSIELDVHHPPTVTLSIEPQTVQEGERVVFTCQATANPEILGYRWAKGGFLIEDAHESRYETNVDYSFFTEPVSCEVHNKVGSTNVSTLVNVHFAPRIVVDPKPTTTDIGSDVTLTCVWVGNPPLTLTWTKKDSNMVLSNSNQLLLKSVTQADAGTYTCRAIVPRIGVAEREVPLYVNGPPIISSEAVQYAVRGDGGKVECFIGSTPPPDRIAWAWKENFLEVGTLERYTVERTNSGSGVLSTLTINNVMEADFQTHYNCTAWNSFGPGTAIIQLEEREVLPVGIIAGATIGASILLIFFFIALVFFLYRRRKGSRKDVTLRKLDIKVETVNREPLTMHSDREDDTASVSTATRVMKAIYSSFKDDVDLKQDLRCDTIDTREEYEMKDPTNGYYNVRAHEDRPSSRAVLYADYRAPGPARFDGRPSSRLSHSSGYAQLNTYSRGPASDYGPEPTPPGPAAPAGTDTTSQLSYENYEKFNSHPFPGAAGYPTYRLGYPQAPPSGLERTPYEAYDPIGKYATATRFSYTSQHSDYGQRFQQRMQTHV"}}, "data": [{"variants_of": "B1", "settings": "with zo1_human TJP1, Q07157", "values": [{"variant": "K729A", "effect of a mutation on the interaction": "decreasing interaction strength"}, {"variant": "Y730A", "effect of a mutation on the interaction": "decreasing interaction strength"}]}]}
